Laboratory results published in the supplement of paper PMC5998384.

Legend:
HeLa Kyoto [1] = experiment: melting temperature (median over replicates), in situ; higher = more thermally stable
HeLa Kyoto [2] = experiment: thermal stability score vs G1/S (z-score of summed log2 fold changes over temperatures); higher = more thermally stable than in G1/S
HeLa Kyoto [3] = experiment: solubility in G1/S (NP-40 vs SDS abundance) (log2 ratio); higher = more soluble; details: cell cycle stage: G1/S
HeLa Kyoto [4] = experiment: solubility change mitosis vs G1/S (difference of NP-40 vs SDS log2 ratios) (log2 ratio difference); higher = more soluble in mitosis
[5] = cell cycle stage: early G1 (4.5 h after nocodazole release)
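Throughout, for melting temperature (median over replicates), in situ: HeLa Kyoto cells synchronized by double thymidine or nocodazole block, proteins quantified by TMT10plex mass spectrometry, three independent biological replicates.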
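Throughout, for solubility change mitosis vs G1/S (difference of NP-40 vs SDS log2 ratios): synchronized HeLa Kyoto cells (double thymidine block for G1/S, nocodazole release for mitosis), protein amounts in NP-40 versus SDS lysates quantified by mass spectrometry, three biological replicates.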
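Throughout, for solubility in G1/S (NP-40 vs SDS abundance): HeLa Kyoto cells arrested at G1/S by double thymidine block, proteins quantified by TMT10plex mass spectrometry in mild NP-40 versus SDS extracts, three biological replicates.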
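Throughout, for thermal stability score vs G1/S (z-score of summed log2 fold changes over temperatures): synchronized HeLa Kyoto cells, proteins quantified by TMT10plex mass spectrometry, three biological replicates, mitosis taken 0.5 h after nocodazole release, G1/S directly after double thymidine block.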

| Sequence | melting temperature (HeLa Kyoto [1]; cell cycle stage: mitosis) [°C] | thermal stability score (HeLa Kyoto [2]; [5]) | thermal stability score (HeLa Kyoto [2]; cell cycle stage: mitosis) | solubility in G1/S (log2) (HeLa Kyoto [3]) | solubility change mitosis (log2) (HeLa Kyoto [4]) | melting temperature (HeLa Kyoto [1]; cell cycle stage: G1/S) [°C] |
| --- | --- | --- | --- | --- | --- | --- |
| MQWLRVRESPGEATGHRVTMGTAALGPVWAALLLFLLMCEIPMVELTFDRAVASGCQRCCDSEDPLDPAHVSSASSSGRPHALPEIRPYINITILKGDKGDPGPMGLPGYMGREGPQGEPGPQGSKGDKGEMGSPGAPCQKRFFAFSVGRKTALHSGEDFQTLLFERVFVNLDGCFDMATGQFAAPLRGIYFFSLNVHSWNYKETYVHIMHNQKEAVILYAQPSERSIMQSQSVMLDLAYGDRVWVRLFKRQRENAIYSNDFDTYITFSGHLIKAEDD [C1QTNF6] | 55 | 0.27 | -0.884 | 0.0492 | -0.235 | – |
| MRAVLDTADIAIVALYFILVMCIGFFAMWKSNRSTVSGYFLAGRSMTWVAIGASLFVSNIGSEHFIGLAGSGAASGFAVGAWEFNALLLLQLLGWVFIPIYIRSGVYTMPEYLSKRFGGHRIQVYFAALSLILYIFTKLSVDLYSGALFIQESLGWNLYVSVILLIGMTALLTVTGGLVAVIYTDTLQALLMIIGALTLMIISIMEIGGFEEVKRRYMLASPDVTSILLTYNLSNTNSCNVSPKKEALKMLRNPTDEDVPWPGFILGQTPASVWYWCADQVIVQRVLAAKNIAHAKGSTLMAGFLKLLPMFIIVVPGMISRILFTDDIACINPEHCMLVCGSRAGCSNIAYPRLVMKLVPVGLRGLMMAVMIAALMSDLDSIFNSASTIFTLDVYKLIRKSASSRELMIVGRIFVAFMVVISIAWVPIIVEMQGGQMYLYIQEVADYLTPPVAALFLLAIFWKRCNEQGAFYGGMAGFVLGAVRLILAFAYRAPECDQPDNRPGFIKDIHYMYVATGLFWVTGLITVIVSLLTPPPTKEQIRTTTFWSKKNLVVKENCSPKEEPYKMQEKSILRCSENNETINHIIPNGKSEDSIKGLQPEDVNLLVTCREEGNPVASLGHSEAETPVDAYSNGQAALMGEKERKKETDDGGRYWKFIDWFCGFKSKSLSKRSLRDLMEEEAVCLQMLEETRQVKVILNIGLFAVCSLGIFMFVYFSL [SLC5A3] | 55.9 | 0.7 | 0.41 | -0.218 | 0.0469 | 57.3 |
| MRCALALSALLLLLSTPPLLPSSPSPSPSPSQNATQTTTDSSNKTAPTPASSVTIMATDTAQQSTVPTSKANEILASVKATTLGVSSDSPGTTTLAQQVSGPVNTTVARGGGSGNPTTTIESPKSTKSADTTTVATSTATAKPNTTSSQNGAEDTTNSGGKSSHSVTTDLTSTKAEHLTTPHPTSPLSPRQPTSTHPVATPTSSGHDHLMKISSSSSTVAIPGYTFTSPGMTTTLLETVFHHVSQAGLELLTSGDLPTLASQSAGITASSVISQRTQQTSSQMPASSTAPSSQETVQPTSPATALRTPTLPETMSSSPTAASTTHRYPKTPSPTVAHESNWAKCEDLETQTQSEKQLVLNLTGNTLCAGGASDEKLISLICRAVKATFNPAQDKCGIRLASVPGSQTVVVKEITIHTKLPAKDVYERLKDKWDELKEAGVSDMKLGDQGPPEEAEDRFSMPLIITIVCMASFLLLVAALYGCCHQRLSQRKDQQRLTEELQTVENGYHDNPTLEVMETSSEMQEKKVVSLNGELGDSWIVPLDNLTKDDLDEEEDTHL [PODXL] | – | -3.38 | -2.15 | -0.214 | -0.092 | 58.6 |
| MRCLAARVNYKTLIIICALFTLVTVLLWNKCSSDKAIQFPRRSSSGFRVDGFEKRAAASESNNYMNHVAKQQSEEAFPQEQQKAPPVVGGFNSNVGSKVLGLKYEEIDCLINDEHTIKGRREGNEVFLPFTWVEKYFDVYGKVVQYDGYDRFEFSHSYSKVYAQRAPYHPDGVFMSFEGYNVEVRDRVKCISGVEGVPLSTQWGPQGYFYPIQIAQYGLSHYSKNLTEKPPHIEVYETAEDRDKNKPNDWTVPKGCFMANVADKSRFTNVKQFIAPETSEGVSLQLGNTKDFIISFDLKFLTNGSVSVVLETTEKNQLFTIHYVSNAQLIAFKERDIYYGIGPRTSWSTVTRDLVTDLRKGVGLSNTKAVKPTKIMPKKVVRLIAKGKGFLDNITISTTAHMAAFFAASDWLVRNQDEKGGWPIMVTRKLGEGFKSLEPGWYSAMAQGQAISTLVRAYLLTKDHIFLNSALRATAPYKFLSEQHGVKAVFMNKHDWYEEYPTTPSSFVLNGFMYSLIGLYDLKETAGEKLGKEARSLYERGMESLKAMLPLYDTGSGTIYDLRHFMLGIAPNLARWDYHTTHINQLQLLSTIDESPVFKEFVKRWKSYLKGSRAKHN [GLCE] | 53.9 | -0.914 | -0.99 | -0.0659 | -0.162 | 53.9 |
| MREIVHIQAGQCGNQIGAKFWEVISDEHGIDPTGTYHGDSDLQLDRISVYYNEATGGKYVPRAILVDLEPGTMDSVRSGPFGQIFRPDNFVFGQSGAGNNWAKGHYTEGAELVDSVLDVVRKEAESCDCLQGFQLTHSLGGGTGSGMGTLLISKIREEYPDRIMNTFSVVPSPKVSDTVVEPYNATLSVHQLVENTDETYCIDNEALYDICFRTLKLTTPTYGDLNHLVSATMSGVTTCLRFPGQLNADLRKLAVNMVPFPRLHFFMPGFAPLTSRGSQQYRALTVPELTQQVFDAKNMMAACDPRHGRYLTVAAVFRGRMSMKEVDEQMLNVQNKNSSYFVEWIPNNVKTAVCDIPPRGLKMAVTFIGNSTAIQELFKRISEQFTAMFRRKAFLHWYTGEGMDEMEFTEAESNMNDLVSEYQQYQDATAEEEEDFGEEAEEEA [TUBB] | 54.4 | 0.696 | -1.83 | 0.245 | -0.117 | 56.4 |
